Publication PMC9482650, “Quantitative fragmentomics allow affinity mapping of interactomes” (Nature Communications, 2022)

Columns and labels:
Experiment in all cases: holdup assay
Parameters in all cases: key: below the threshold = too weak to quantify, mostly under pKd 3.1 to 4
APBA1_1, Q02410 = target: T1, APBA1_1, Q02410
T1 sequence (Q02410 651-752, limits assumed, looked up): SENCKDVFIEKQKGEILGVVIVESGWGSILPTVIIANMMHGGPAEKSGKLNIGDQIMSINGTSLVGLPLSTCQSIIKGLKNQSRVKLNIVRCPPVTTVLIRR

CASK, O14936 = target: CASK, O14936
Chain of CASK, O14936 (O14936 487-570): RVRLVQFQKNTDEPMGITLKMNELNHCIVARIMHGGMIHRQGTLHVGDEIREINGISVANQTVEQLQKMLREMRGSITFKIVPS

DLG3_3, Q92796 = target: T2, DLG3_3, Q92796
T2 sequence (Q92796 374-475, limits assumed, looked up): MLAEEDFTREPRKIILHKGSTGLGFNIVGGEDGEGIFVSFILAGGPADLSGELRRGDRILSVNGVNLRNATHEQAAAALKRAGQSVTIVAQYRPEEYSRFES

FRMPD3, Q5JV73 = target: FRMPD3, Q5JV73
Chain of FRMPD3, Q5JV73 (Q5JV73 12-100): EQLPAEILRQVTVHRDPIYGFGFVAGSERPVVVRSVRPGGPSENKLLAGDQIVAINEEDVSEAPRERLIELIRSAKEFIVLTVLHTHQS

GOPC, Q9HD26 = target: GOPC, Q9HD26
GORASP2, Q9H8Y8 = target: GORASP2, Q9H8Y8
GRID2IP_1, A4D2P6 = target: GRID2IP_1, A4D2P6
Chain of GRID2IP_1, A4D2P6 (A4D2P6 1-87): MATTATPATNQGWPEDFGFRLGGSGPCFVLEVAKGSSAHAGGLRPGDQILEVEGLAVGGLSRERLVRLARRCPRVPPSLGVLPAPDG

GRID2IP_2, A4D2P6 = target: GRID2IP_2, A4D2P6
Chain of GRID2IP_2, A4D2P6 (A4D2P6 272-370): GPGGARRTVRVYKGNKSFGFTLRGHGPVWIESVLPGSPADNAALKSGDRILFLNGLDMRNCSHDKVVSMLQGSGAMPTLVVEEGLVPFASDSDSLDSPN

HTRA2, O43464 = target: HTRA2, O43464
Chain of HTRA2, O43464 (O43464 355-458): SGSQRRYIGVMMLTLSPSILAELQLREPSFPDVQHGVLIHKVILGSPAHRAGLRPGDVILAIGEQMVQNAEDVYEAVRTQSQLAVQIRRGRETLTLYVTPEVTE

IL16_4, Q14005 = target: IL16_4, Q14005
Chain of IL16_4, Q14005 (Q14005 1229-1329): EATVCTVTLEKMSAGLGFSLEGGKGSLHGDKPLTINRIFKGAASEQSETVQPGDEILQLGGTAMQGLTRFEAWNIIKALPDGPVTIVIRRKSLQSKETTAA

Inadl_3, Q8NI35 = target: Inadl_3, Q8NI35
Chain of Inadl_3, Q8NI35 (Q8NI35 359-469): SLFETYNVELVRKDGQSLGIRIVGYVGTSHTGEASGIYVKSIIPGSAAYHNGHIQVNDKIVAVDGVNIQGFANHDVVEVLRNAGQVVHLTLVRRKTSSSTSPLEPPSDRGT

Inadl_9, Q8NI35 = target: Inadl_9, Q8NI35
Chain of Inadl_9, Q8NI35 (Q8NI35 1530-1615): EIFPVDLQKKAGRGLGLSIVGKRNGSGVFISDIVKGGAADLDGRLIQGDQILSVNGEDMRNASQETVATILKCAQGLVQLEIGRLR

LIMK2, P53671 = target: LIMK2, P53671
Chain of LIMK2, P53671 (P53671 143-248): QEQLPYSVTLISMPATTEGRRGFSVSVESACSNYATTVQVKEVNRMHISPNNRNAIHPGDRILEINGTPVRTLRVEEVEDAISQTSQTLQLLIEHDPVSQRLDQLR

LNX1_2, Q8TBB1 = target: LNX1_2, Q8TBB1
Chain of LNX1_2, Q8TBB1 (Q8TBB1 371-470): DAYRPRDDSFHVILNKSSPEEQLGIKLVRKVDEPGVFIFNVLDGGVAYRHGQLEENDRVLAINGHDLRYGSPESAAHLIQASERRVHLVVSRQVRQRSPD

LNX1_3, Q8TBB1 = target: LNX1_3, Q8TBB1
Chain of LNX1_3, Q8TBB1 (Q8TBB1 500-596): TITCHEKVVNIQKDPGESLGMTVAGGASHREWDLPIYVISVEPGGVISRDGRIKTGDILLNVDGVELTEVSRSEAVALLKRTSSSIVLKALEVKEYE

LNX2_2, Q8N448 = target: T3, LNX2_2, Q8N448
T3 sequence (Q8N448 334-432, limits assumed, looked up): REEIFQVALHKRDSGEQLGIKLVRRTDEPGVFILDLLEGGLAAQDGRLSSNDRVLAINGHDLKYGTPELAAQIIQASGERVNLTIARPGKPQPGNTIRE

MAGI2_3, Q86UL8 = target: MAGI2_3, Q86UL8
Chain of MAGI2_3, Q86UL8 (Q86UL8 600-682): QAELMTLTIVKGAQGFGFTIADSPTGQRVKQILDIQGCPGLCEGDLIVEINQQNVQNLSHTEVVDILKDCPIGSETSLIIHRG

MAGI2_4, Q86UL8 = target: MAGI2_4, Q86UL8
Chain of MAGI2_4, Q86UL8 (Q86UL8 772-865): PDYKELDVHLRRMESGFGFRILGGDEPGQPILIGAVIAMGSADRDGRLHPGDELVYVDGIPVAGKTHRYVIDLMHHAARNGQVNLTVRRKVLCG

MAST1, Q9Y2H9 = target: MAST1, Q9Y2H9
Chain of MAST1, Q9Y2H9 (Q9Y2H9 962-1065): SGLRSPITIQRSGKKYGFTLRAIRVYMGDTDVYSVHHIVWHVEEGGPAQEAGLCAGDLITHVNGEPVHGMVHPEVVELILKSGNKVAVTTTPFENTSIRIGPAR

MAST2, Q6P0Q8 = target: MAST2, Q6P0Q8
Chain of MAST2, Q6P0Q8 (Q6P0Q8 1099-1202): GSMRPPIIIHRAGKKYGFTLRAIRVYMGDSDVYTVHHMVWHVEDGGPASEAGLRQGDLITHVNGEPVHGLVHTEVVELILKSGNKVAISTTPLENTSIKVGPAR

NHERF4_2, Q86UT5 = target: NHERF4_2, Q86UT5
Chain of NHERF4_2, Q86UT5 (Q86UT5 220-308): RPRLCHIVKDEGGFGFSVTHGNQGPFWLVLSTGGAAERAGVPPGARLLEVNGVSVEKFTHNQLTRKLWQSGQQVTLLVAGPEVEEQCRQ

PDZD7_3, Q9H5P4 = target: T4, PDZD7_3, Q9H5P4
T4 sequence (Q9H5P4 857-944, limits assumed, looked up): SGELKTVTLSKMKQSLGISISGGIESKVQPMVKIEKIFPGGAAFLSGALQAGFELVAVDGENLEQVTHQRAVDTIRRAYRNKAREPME

PDZRN3_1, Q9UPQ7 = target: T5, PDZRN3_1, Q9UPQ7
T5 sequence (Q9UPQ7 244-349, limits assumed, looked up): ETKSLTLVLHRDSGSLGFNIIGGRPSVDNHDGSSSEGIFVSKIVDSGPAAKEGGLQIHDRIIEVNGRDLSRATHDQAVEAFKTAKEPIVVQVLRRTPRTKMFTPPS

PDZRN4_1, Q6ZMN7 = target: PDZRN4_1, Q6ZMN7
Chain of PDZRN4_1, Q6ZMN7 (Q6ZMN7 213-318): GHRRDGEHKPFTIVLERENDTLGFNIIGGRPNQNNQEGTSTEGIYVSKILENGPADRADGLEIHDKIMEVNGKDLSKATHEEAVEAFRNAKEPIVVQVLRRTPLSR

RADIL, Q96JH8 = target: T6, RADIL, Q96JH8
T6 sequence (Q96JH8 971-1071, limits assumed, looked up): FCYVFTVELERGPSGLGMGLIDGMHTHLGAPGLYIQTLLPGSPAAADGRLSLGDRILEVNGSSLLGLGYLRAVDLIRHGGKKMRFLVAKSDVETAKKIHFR

RHPN1, Q8TCX5 = target: T7, RHPN1, Q8TCX5
T7 sequence (Q8TCX5 508-602, limits assumed, looked up): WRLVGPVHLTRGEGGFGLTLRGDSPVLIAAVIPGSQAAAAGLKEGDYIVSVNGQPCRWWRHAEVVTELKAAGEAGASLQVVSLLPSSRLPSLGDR

SNTG2, Q9NY99 = target: T8, SNTG2, Q9NY99
T8 sequence (Q9NY99 68-166, limits assumed, looked up): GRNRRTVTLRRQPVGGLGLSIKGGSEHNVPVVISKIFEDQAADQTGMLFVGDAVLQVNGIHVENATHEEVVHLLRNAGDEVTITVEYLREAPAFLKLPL

TJP1_2, Q07157 = target: TJP1_2, Q07157
Chain of TJP1_2, Q07157 (Q07157 181-274): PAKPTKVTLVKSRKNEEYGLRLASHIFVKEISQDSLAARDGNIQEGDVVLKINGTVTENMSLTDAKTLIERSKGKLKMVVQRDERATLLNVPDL

TJP2_1, Q9UDY2 = target: TJP2_1, Q9UDY2
Chain of TJP2_1, Q9UDY2 (Q9UDY2 24-128): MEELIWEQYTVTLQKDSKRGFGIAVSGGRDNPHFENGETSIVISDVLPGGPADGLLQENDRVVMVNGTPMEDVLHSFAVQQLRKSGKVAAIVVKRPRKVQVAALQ

[1] = plain residues with an end cap or a label only (N-terminal biotin on a linker: ttds)
[2] = plain residues with an end cap or a label only (N-terminal biotin on a linker: ahx)

With SRSRRRETAL [HPV33-E6, P06427] the pKd (APBA1_1, Q02410; [1]) was “below the threshold”, the pKd (CASK, O14936; [1]) was “below the threshold” and the pKd (DLG3_3, Q92796; [1]) was 5.07. The pKd (FRMPD3, Q5JV73; [1]) was “below the threshold”, the pKd (GOPC, Q9HD26; [1]) was 3.97 and the pKd (GORASP2, Q9H8Y8; [1]) was 4.26. The pKd (GRID2IP_1, A4D2P6; [1]) was “below the threshold”, the pKd (GRID2IP_2, A4D2P6; [1]) was 4.18 and the pKd (HTRA2, O43464; [1]) was 3.46. The pKd (IL16_4, Q14005; [1]) was “below the threshold”, the pKd (Inadl_3, Q8NI35; [1]) was “below the threshold” and the pKd (Inadl_9, Q8NI35; [1]) was “below the threshold”. The pKd (LIMK2, P53671; [1]) was “below the threshold”, the pKd (LNX1_2, Q8TBB1; [1]) was “below the threshold” and the pKd (LNX1_3, Q8TBB1; [1]) was “below the threshold”. The pKd (LNX2_2, Q8N448; [1]) was “below the threshold”, the pKd (MAGI2_3, Q86UL8; [1]) was “below the threshold” and the pKd (MAGI2_4, Q86UL8; [1]) was “below the threshold”. For the same binder, the pKd (MAST1, Q9Y2H9; [1]) was 4.78, the pKd (MAST2, Q6P0Q8; [1]) was 5.37 and the pKd (NHERF4_2, Q86UT5; [1]) was “below the threshold”. It also gave a pKd (PDZD7_3, Q9H5P4; [1]) of 4.65, a pKd (PDZRN3_1, Q9UPQ7; [1]) of 5.93 and a pKd (PDZRN4_1, Q6ZMN7; [1]) of 5.21. The pKd (RADIL, Q96JH8; [1]) was “below the threshold”, the pKd (RHPN1, Q8TCX5; [1]) was 3.81 and the pKd (SNTG2, Q9NY99; [1]) was 4.48. For the same binder, the pKd (TJP1_2, Q07157; [1]) was “below the threshold” and the pKd (TJP2_1, Q9UDY2; [1]) was 4.01.

In the case of ADENEQVSAV [RAPGEF6, Q8TEU7], the pKd (APBA1_1, Q02410; [2]) is reported as “below the threshold”, the pKd (CASK, O14936; [2]) is reported as “below the threshold” and the pKd (DLG3_3, Q92796; [2]) is reported as “below the threshold”. The pKd (FRMPD3, Q5JV73; [2]) was “below the threshold”, the pKd (GOPC, Q9HD26; [2]) was “below the threshold” and the pKd (GORASP2, Q9H8Y8; [2]) was “below the threshold”. For the same binder, the pKd (GRID2IP_1, A4D2P6; [2]) was “below the threshold”, the pKd (GRID2IP_2, A4D2P6; [2]) was 4.19 and the pKd (HTRA2, O43464; [2]) was “below the threshold”. The pKd (IL16_4, Q14005; [2]) was “below the threshold”, the pKd (Inadl_3, Q8NI35; [2]) was 3.63 and the pKd (Inadl_9, Q8NI35; [2]) was “below the threshold”. The pKd (LIMK2, P53671; [2]) was “below the threshold”, the pKd (LNX1_2, Q8TBB1; [2]) was “below the threshold” and the pKd (LNX1_3, Q8TBB1; [2]) was “below the threshold”. For the same binder, the pKd (LNX2_2, Q8N448; [2]) was “below the threshold”, the pKd (MAGI2_3, Q86UL8; [2]) was 4.15 and the pKd (MAGI2_4, Q86UL8; [2]) was “below the threshold”. For the same binder, the pKd (MAST1, Q9Y2H9; [2]) was 4.05, the pKd (MAST2, Q6P0Q8; [2]) was 4.79 and the pKd (NHERF4_2, Q86UT5; [2]) was “below the threshold”. For the same binder, the pKd (PDZD7_3, Q9H5P4; [2]) was 3.83, the pKd (PDZRN3_1, Q9UPQ7; [2]) was 3.79 and the pKd (PDZRN4_1, Q6ZMN7; [2]) was “below the threshold”. The pKd (RADIL, Q96JH8; [2]) was “below the threshold”, the pKd (RHPN1, Q8TCX5; [2]) was 4.42 and the pKd (SNTG2, Q9NY99; [2]) was “below the threshold”. For the same binder, the pKd (TJP1_2, Q07157; [2]) was “below the threshold” and the pKd (TJP2_1, Q9UDY2; [2]) was “below the threshold”.
